Test results from the supplement of paper PMC5998384.

Legend:
[1] = test system: HeLa Kyoto; test: melting temperature (median over replicates), in situ; higher = more thermally stable
[2] = test system: HeLa Kyoto; test: solubility change mitosis vs G1/S (difference of NP-40 vs SDS log2 ratios) (log2 ratio difference); higher = more soluble in mitosis
[3] = test system: HeLa Kyoto; test: solubility in G1/S (NP-40 vs SDS abundance) (log2 ratio); higher = more soluble; details: cell cycle stage: G1/S
[4] = test system: HeLa Kyoto; test: thermal stability score vs G1/S (z-score of summed log2 fold changes over temperatures); higher = more thermally stable than in G1/S
[5] = cell cycle stage: early G1 (4.5 h after nocodazole release)
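For melting temperature (median over replicates), in situ in this document: HeLa Kyoto cells synchronized by double thymidine or nocodazole block, proteins quantified by TMT10plex mass spectrometry, three independent biological replicates.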
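For solubility change mitosis vs G1/S (difference of NP-40 vs SDS log2 ratios) in this document: synchronized HeLa Kyoto cells (double thymidine block for G1/S, nocodazole release for mitosis), protein amounts in NP-40 versus SDS lysates quantified by mass spectrometry, three biological replicates.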
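For solubility in G1/S (NP-40 vs SDS abundance) in this document: HeLa Kyoto cells arrested at G1/S by double thymidine block, proteins quantified by TMT10plex mass spectrometry in mild NP-40 versus SDS extracts, three biological replicates.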
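For thermal stability score vs G1/S (z-score of summed log2 fold changes over temperatures) in this document: synchronized HeLa Kyoto cells, proteins quantified by TMT10plex mass spectrometry, three biological replicates, mitosis taken 0.5 h after nocodazole release, G1/S directly after double thymidine block.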

Sequence | melting temperature ([1]; cell cycle stage: G1/S) | melting temperature ([1]; cell cycle stage: mitosis) | solubility change mitosis (log2) [2] | solubility in G1/S (log2) [3] | thermal stability score [4, 5] | thermal stability score ([4]; cell cycle stage: mitosis)
MAAPMTPAARPEDYEAALNAALADVPELARLLEIDPYLKPYAVDFQRRYKQFSQILKNIGENEGGIDKFSRGYESFGVHRCADGGLYCKEWAPGAEGVFLTGDFNGWNPFSYPYKKLDYGKWELYIPPKQNKSVLVPHGSKLKVVITSKSGEILYRISPWAKYVVREGDNVNYDWIHWDPEHSYEFKHSRPKKPRSLRIYESHVGISSHEGKVASYKHFTCNVLPRIKGLGYNCIQLMAIMEHAYYASFGYQITSFFAASSRYGTPEELQELVDTAHSMGIIVLLDVVHSHASKNSADGLNMFDGTDSCYFHSGPRGTHDLWDSRLFAYSSWEILRFLLSNIRWWLEEYRFDGFRFDGVTSMLYHHHGVGQGFSGDYSEYFGLQVDEDALTYLMLANHLVHTLCPDSITIAEDVSGMPALCSPISQGGGGFDYRLAMAIPDKWIQLLKEFKDEDWNMGDIVYTLTNRRYLEKCIAYAESHDQALVGDKSLAFWLMDAEMYTNMSVLTPFTPVIDRGIQLHKMIRLITHGLGGEGYLNFMGNEFGHPEWLDFPRKGNNESYHYARRQFHLTDDDLLRYKFLNNFDRDMNRLEERYGWLAAPQAYVSEKHEGNKIIAFERAGLLFIFNFHPSKSYTDYRVGTALPGKFKIVLDSDAAEYGGHQRLDHSTDFFSEAFEHNGRPYSLLVYIPSRVALILQNVDLPN [GBE1] | 49.7 °C | 49.6 °C | -0.104 | -0.184 | -0.0259 | 0.998
MAAPQDVHVRICNQEIVKFDLEVKALIQDIRDCSGPLSALTELNTKVKEKFQQLRHRIQDLEQLAKEQDKESEKQLLLQEVENHKKQMLSNQASWRKANLTCKIAIDNLEKAELLQGGDLLRQRKTTKESLAQTSSTITESLMGISRMMAQQVQQSEEAMQSLVTSSRTILDANEEFKSMSGTIQLGRKLITKYNRRELTDKLLIFLALALFLATVLYIVKKRLFPFL [BNIP1] | 52.3 °C | 51.7 °C | -0.0998 | -0.186 | 1.09 | 0.444
MAAPRAGRGAGWSLRAWRALGGIRWGRRPRLTPDLRALLTSGTSDPRARVTYGTPSLWARLSVGVTEPRACLTSGTPGPRAQLTAVTPDTRTREASENSGTRSRAWLAVALGAGGAVLLLLWGGGRGPPAVLAAVPSPPPASPRSQYNFIADVVEKTAPAVVYIEILDRHPFLGREVPISNGSGFVVAADGLIVTNAHVVADRRRVRVRLLSGDTYEAVVTAVDPVADIATLRIQTKEPLPTLPLGRSADVRQGEFVVAMGSPFALQNTITSGIVSSAQRPARDLGLPQTNVEYIQTDAAIDFGNSGGPLVNLDGEVIGVNTMKVTAGISFAIPSDRLREFLHRGEKKNSSSGISGSQRRYIGVMMLTLSPSILAELQLREPSFPDVQHGVLIHKVILGSPAHRAGLRPGDVILAIGEQMVQNAEDVYEAVRTQSQLAVQIRRGRETLTLYVTPEVTE [HTRA2] | 56.9 °C | 56.5 °C | 0.028 | 0.168 | -2.4 | -3.14
MAAPRPPPARLSGVMVPAPIQDLEALRALTALFKEQRNRETAPRTIFQRVLDILKKSSHAVELACRDPSQVENLASSLQLITECFRCLRNACIECSVNQNSIRNLDTIGVAVDLILLFRELRVEQESLLTAFRCGLQFLGNIASRNEDSQSIVWVHAFPELFLSCLNHPDKKIVAYSSMILFTSLNHERMKELEENLNIAIDVIDAYQKHPESEWPFLIITDLFLKSPELVQAMFPKLNNQERVTLLDLMIAKITSDEPLTKDDIPVFLRHAELIASTFVDQCKTVLKLASEEPPDDEEALATIRLLDVLCEMTVNTELLGYLQVFPGLLERVIDLLRVIHVAGKETTNIFSNCGCVRAEGDISNVANGFKSHLIRLIGNLCYKNKDNQDKVNELDGIPLILDNCNISDSNPFLTQWVIYAIRNLTEDNSQNQDLIAKMEEQGLADASLLKKVGFEVEKKGEKLILKSTRDTPKP [ATXN10] | 51.9 °C | 51.1 °C | -0.135 | 0.202 | 0.984 | 1.43
MAAPSGGWNGVGASLWAALLLGAVALRPAEAVSEPTTVAFDVRPGGVVHSFSHNVGPGDKYTCMFTYASQGGTNEQWQMSLGTSEDHQHFTCTIWRPQGKSYLYFTQFKAEVRGAEIEYAMAYSKAAFERESDVPLKTEEFEVTKTAVAHRPGAFKAELSKLVIVAKASRTEL [MYDGF] | 57.7 °C | 57.7 °C | -0.192 | 0.19 | 2.14 | 0.789
MAAQRIRAANSNGLPRCKSEGTLIDLSEGFSETSFNDIKVPSPSALLVDNPTPFGNAKEVIAIKDYCPTNFTTLKFSKGDHLYVLDTSGGEWWYAHNTTEMGYIPSSYVQPLNYRNSTLSDSGMIDNLPDSPDEVAKELELLGGWTDDKKVPGRMYSNNPFWNGVQTNPFLNGNVPVMPSLDELNPKSTVDLLLFDAGTSSFTESSSATTNSTGNIFDELPVTNGLHAEPPVRRDNPFFRSKRSYSLSELSVLQAKSDAPTSSSFFTGLKSPAPEQFQSREDFRTAWLNHRKLARSCHDLDLLGQSPGWGQTQAVETNIVCKLDSSGGAVQLPDTSISIHVPEGHVAPGETQQISMKALLDPPLELNSDRSCSISPVLEVKLSNLEVKTSIILEMKVSAEIKNDLFSKSTVGLQCLRSDSKEGPYVSVPLNCSCGDTVQAQLHNLEPCMYVAVVAHGPSILYPSTVWDFINKKVTVGLYGPKHIHPSFKTVVTIFGHDCAPKTLLVSEVTRQAPNPAPVALQLWGKHQFVLSRPQDLKVCMFSNMTNYEVKASEQAKVVRGFQLKLGKVSRLIFPITSQNPNELSDFTLRVQVKDDQEAILTQFCVQTPQPPPKSAIKPSGQRRFLKKNEVGKIILSPFATTTKYPTFQDRPVSSLKFGKLLKTVVRQNKNHYLLEYKKGDGIALLSEERVRLRGQLWTKEWYIGYYQGRVGLVHTKNVLVVGRARPSLCSGPELSTSVLLEQILRPCKFLTYIYASVRTLLMENISSWRSFADALGYVNLPLTFFCRAELDSEPERVASVLEKLKEDCNNTENKERKSFQKELVMALLKMDCQGLVVRLIQDFVLLTTAVEVAQRWRELAEKLAKVSKQQMDAYESPHRDRNGVVDSEAMWKPAYDFLLTWSHQIGDSYRDVIQELHLGLDKMKNPITKRWKHLTGTLILVNSLDVLRAAAFSPADQDDFVI [SH3BP4] | 50.4 °C | 49.2 °C | -0.133 | -0.0978 | 0.727 | 0.411
